# Measured values from publication PMC9239997, “Structural basis for mitoguardin-2 mediated lipid transport at ER-mitochondrial membrane contact sites” (Nature Communications, 2022).
# Positions count from the first letter of the chain named. Names may count otherwise. [ ]: non-standard residue; d: D form. pS = N[C@@H](COP(=O)(O)O)C(=O)O
# T1: zMiga2 (Danio rerio, UniProt Q5BLE2)
# T1 construct: gene miga2; LD targeting domain, residues 310-568; E. coli BL21(DE3); His6 tag cleaved by TEV
# T1 sequence (Q5BLE2 310-568): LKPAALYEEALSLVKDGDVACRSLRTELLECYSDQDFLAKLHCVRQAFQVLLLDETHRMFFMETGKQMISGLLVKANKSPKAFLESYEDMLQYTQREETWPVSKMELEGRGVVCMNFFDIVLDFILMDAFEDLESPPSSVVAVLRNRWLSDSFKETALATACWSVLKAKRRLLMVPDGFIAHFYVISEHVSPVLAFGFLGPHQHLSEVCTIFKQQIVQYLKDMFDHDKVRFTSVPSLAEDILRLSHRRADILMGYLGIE
# T2: mouse MIGA2 residues 275-570 S292E (mouse, UniProt Q8BK03 275-570, S292E)
# T2 construct: source: E. coli BL21 (DE3), purified as the wild type (Ni2+-chelated HiTrap, tag cleaved by TEV, size exclusion chromatography)
# T2 sequence (looked up): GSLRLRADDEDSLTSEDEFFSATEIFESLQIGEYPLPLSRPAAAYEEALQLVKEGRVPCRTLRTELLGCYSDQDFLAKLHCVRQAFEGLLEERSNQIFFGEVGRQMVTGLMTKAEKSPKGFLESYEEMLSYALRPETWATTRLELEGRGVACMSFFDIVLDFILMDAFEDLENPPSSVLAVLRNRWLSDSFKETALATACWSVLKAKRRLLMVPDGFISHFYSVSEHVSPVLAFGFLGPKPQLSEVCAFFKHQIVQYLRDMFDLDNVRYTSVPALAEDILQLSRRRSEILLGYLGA
# T3: mouse MIGA2 residues 275-570 S295D (mouse, UniProt Q8BK03 275-570, S295D)
# T3 construct: source: E. coli BL21 (DE3), purified as the wild type (Ni2+-chelated HiTrap, tag cleaved by TEV, size exclusion chromatography)
# T3 sequence (looked up): T2 sequence (looked up) with E18S, S21D
# T4: mouse MIGA2 residues 275-570 S292E/S295D (mouse, UniProt Q8BK03 275-570, S292E | S295D)
# T4 construct: source: E. coli BL21 (DE3), purified as the wild type (Ni2+-chelated HiTrap, tag cleaved by TEV, size exclusion chromatography)
# T4 sequence (looked up): T2 sequence (looked up) with S21D
# T5: mouse MIGA2 residues 275-570, S292E (mouse (Mus musculus), UniProt Q8BK03 275-570, S292E)
# T5 construct: also called S292E phosphorylation mimic mutant; source: E. coli BL21 (DE3), purified (Ni2+-chelated HiTrap, TEV cleavage, SEC)
# T5 sequence (looked up): T2 sequence (looked up)
# T6: mouse MIGA2 residues 275-570, S295D (mouse (Mus musculus), UniProt Q8BK03 275-570, S295D)
# T6 construct: also called S295D phosphorylation mimic mutant; source: E. coli BL21 (DE3), purified (Ni2+-chelated HiTrap, TEV cleavage, SEC)
# T6 sequence (looked up): T2 sequence (looked up) with E18S, S21D
# B1: mouse MIGA2 residues 161-570 (domain or fragment, UniProt Q8BK03 161-570, looked up)
# chain: GMEESVPTTDGSAESLYVQGMELFEEALQKWEQALSVGQRGDGGSTPTPGDSLQNPDTASEALSEPESQRREFAEKLESLLHRAYHLQEEFGSTFPSDSMLLDLERTLMLPLTEGSLRLRADDEDSLTSEDSFFSATEIFESLQIGEYPLPLSRPAAAYEEALQLVKEGRVPCRTLRTELLGCYSDQDFLAKLHCVRQAFEGLLEERSNQIFFGEVGRQMVTGLMTKAEKSPKGFLESYEEMLSYALRPETWATTRLELEGRGVACMSFFDIVLDFILMDAFEDLENPPSSVLAVLRNRWLSDSFKETALATACWSVLKAKRRLLMVPDGFISHFYSVSEHVSPVLAFGFLGPKPQLSEVCAFFKHQIVQYLRDMFDLDNVRYTSVPALAEDILQLSRRRSEILLGYLGA
# notes: Oligomer of unstated size by SEC; source: E. coli BL21 (DE3), purified (Ni2+-chelated HiTrap, tag cleaved by TEV, size exclusion chromatography)
# B2: MSP domain of mouse VAPB (residues 1-125) (domain or fragment, UniProt Q9QY76 1-125, looked up)
# chain: MAKVEQVLSLEPQHELKFRGPFTDVVTTNLKLGNPTDRNVCFKVKTTVPRRYCVRPNSGVIDAGASLNVSVMLQPFDYDPNEKSKHKFMVQSMFAPPDTSDMEAVWKEAKPEDLMDSKLRCVFEL
# notes: vesicle-associated membrane protein-associated protein B/C (VAPB), Mus musculus, MSP domain, residues 1-125; Cloned into pGEX-6P-1; the pull-down used a GST-fused form, which is not this molecule; also called mVAPB; mVAPB WT
# B3: MSP domain of mouse VAPB (residues 1-125) K43L/K45L (domain or fragment, UniProt Q9QY76 1-125, looked up)
# chain: B2 chain with K43L, K45L
# notes: VAPB, Mus musculus, MSP domain, residues 1-125, with K43L and K45L; also called mVAPB K43L/K45L
# B4: MSP domain of mouse VAPB (residues 1-125) K87L/K118L (domain or fragment, UniProt Q9QY76 1-125, looked up)
# chain: B2 chain with K87L, K118L
# notes: VAPB, Mus musculus, MSP domain, residues 1-125, with K87L and K118L; also called mVAPB K87L/K118L
# B5: phosphorylated FFAT motif peptide of mouse MIGA2 (residues 289-298) (peptide)
# peptide: Ac-SED[pS]FF[pS]ATE-NH2
# SMILES: CC(=O)N[C@@H](CO)C(=O)N[C@@H](CCC(=O)O)C(=O)N[C@@H](CC(=O)O)C(=O)N[C@@H](COP(=O)(O)O)C(=O)N[C@@H](Cc1ccccc1)C(=O)N[C@@H](Cc1ccccc1)C(=O)N[C@@H](COP(=O)(O)O)C(=O)N[C@@H](C)C(=O)N[C@H](C(=O)N[C@@H](CCC(=O)O)C(N)=O)[C@@H](C)O
# notes: also called mMIGA2^pFFAT; source: synthetic peptide, purified by HPLC
# B6: mouse MIGA2 middle domain, residues 161-300 (domain or fragment, UniProt Q8BK03 161-300, looked up)
# chain: GMEESVPTTDGSAESLYVQGMELFEEALQKWEQALSVGQRGDGGSTPTPGDSLQNPDTASEALSEPESQRREFAEKLESLLHRAYHLQEEFGSTFPSDSMLLDLERTLMLPLTEGSLRLRADDEDSLTSEDSFFSATEIF
# notes: Oligomer of unstated size by SEC; also called central MIGA2 domain; source: E. coli BL21 (DE3), purified (Ni2+-chelated HiTrap, tag cleaved by TEV, size exclusion chromatography)
# B7: MSP domain of mouse VAPB (residues 1-125) (domain or fragment, mouse (Mus musculus), UniProt Q9QY76 1-125, looked up)
# chain: B2 chain
# notes: vesicle-associated membrane protein-associated protein B/C (VAPB), mouse, MSP domain, residues 1-125; In the liposome clustering (DLS) and tethered lipid transfer assays a His-tagged form (His-mVAPB) was used; also called mVAPB; wild-type mVAPB
# B8: mouse MIGA2 residues 275-570, S292E/S295D (domain or fragment, mouse (Mus musculus), UniProt Q8BK03 275-570, looked up)
# chain: T2 sequence (looked up) with S21D
# Key:
# zMiga2 = target: T1, zMiga2; test: FRET lipid transfer between liposomes; type: biochemical; details: labelled compound; 100 nM protein, pH 7.0, room temperature; transport, not chemical turnover
# [1] = target: the molecule itself; test: SEC; Superdex 200 increase 10/300 GL, 25 mM Tris-HCl pH 7.5, 150 mM NaCl, 5 mM DTT; proteins injected at 2–4 mg/ml; elution compared with molecular mass standards
# [2] = target: T2, mouse MIGA2 residues 275-570 S292E; test: ITC; mVAPB (wild type or mutant) in the syringe, mMIGA2^275-570 or mMIGA2^pFFAT in the cell; Microcal ITC200, 25 °C, 25 mM Tris-HCl pH 7.5, 150 mM NaCl, 4 mM β-mercaptoethanol; 20 injections of 2 μl; 1:1 binding model; details: both partners purified
# [3] = target: T3, mouse MIGA2 residues 275-570 S295D; test: as above; details: both partners purified
# [4] = target: T4, mouse MIGA2 residues 275-570 S292E/S295D; test: as above; details: both partners purified
# [5] = target: B5; test: as above; details: both partners purified
# [6] = target: B3; test: as above; details: both partners purified
# [7] = target: B4; test: as above; details: both partners purified
# [8] = target: T5, mouse MIGA2 residues 275-570, S292E; test: ITC; Microcal ITC200, 25 °C, buffer C (25 mM Tris-HCl pH 7.5, 150 mM NaCl, 4 mM β-mercaptoethanol); 20 injections of 2 μl; 1:1 binding model; details: both partners purified
# [9] = target: T6, mouse MIGA2 residues 275-570, S295D; test: as above; details: both partners purified
# [10] = target: B8; test: as above; details: both partners purified
# [11] = target: B7; test: cell-based or functional assay
molecule,measurement,setting,value
"CCCCCCCCCCCCCCCC(=O)OC[C@H](COP(=O)(O)O)OC(=O)CCCCCCCCCCCNc1ccc([N+](=O)[O-])c2nonc12 [NBD-PA, 1-palmitoyl-2-{12-[(7-nitro-2-1,3-benzoxadiazol-4-yl)amino]dodecanoyl}-sn-glycero-3-phosphate]",FRET lipid transfer between liposomes,zMiga2,"zMiga2 transfers not only PS, but also PE, PC, and PA"
"CCCCCCCCCCCCCCCC(=O)OC[C@H](COP(=O)(O)OC[C@H](N)C(=O)O)OC(=O)CCCCCCCCCCCNc1ccc([N+](=O)[O-])c2nonc12 [NBD-PS, 1-palmitoyl-2-{12-[(7-nitro-2-1,3-benzoxadiazol-4-yl)amino]dodecanoyl}-sn-glycero-3-phosphoserine]",FRET lipid transfer between liposomes,zMiga2,zMiga2 transferred PS more rapidly than other phospholipids
B1,binding result,[1],binds
B2,stoichiometry N,[2],0.633 ± 0.071
same,stoichiometry N,[3],0.501 ± 0.013
same,stoichiometry N,[4],0.658 ± 0.009
same,stoichiometry N,[5],0.755 ± 0.07
B3,stoichiometry N,[5],1.04 ± 0.027
B4,stoichiometry N,[5],0.698 ± 0.071
B5,Kd,[6],8.6 ± 1.4 µM
same,Kd,[7],5 ± 0.4 µM
B6,binding result,[1],binds
B7,Kd,[8],26.4 ± 6.8 µM
same,Kd,[9],8.1 ± 1.5 µM
same,Kd,[10],2.5 ± 0.3 µM
B8,"liposome particle size by DLS: donor liposomes pre-anchored with His-mVAPB mixed with acceptor liposomes pre-anchored with His-mMIGA2^275-570 (S292E/S295D), compared with wild-type His-mMIGA2^275-570",[11],~5 fold
